From article PMC5942779, “Identification of a peptide inhibitor for the histone methyltransferase WHSC1” (PLoS ONE, 2018)

Legend:
[1] = target: WHSC1 941–1240 (UniProt O96028)
[2] = target: WHSC1L1 1054–1285 (UniProt O96028)
Sequence of WHSC1L1 1054–1285 (O96028 1054-1285): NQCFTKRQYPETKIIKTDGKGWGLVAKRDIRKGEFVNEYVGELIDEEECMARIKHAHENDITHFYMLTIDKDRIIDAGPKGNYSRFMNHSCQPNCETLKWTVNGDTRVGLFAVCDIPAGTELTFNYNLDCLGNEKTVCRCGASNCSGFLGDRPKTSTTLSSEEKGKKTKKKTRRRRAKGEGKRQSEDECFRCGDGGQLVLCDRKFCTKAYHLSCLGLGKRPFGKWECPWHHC

Sequence of WHSC1 941–1240 (O96028 941-1240): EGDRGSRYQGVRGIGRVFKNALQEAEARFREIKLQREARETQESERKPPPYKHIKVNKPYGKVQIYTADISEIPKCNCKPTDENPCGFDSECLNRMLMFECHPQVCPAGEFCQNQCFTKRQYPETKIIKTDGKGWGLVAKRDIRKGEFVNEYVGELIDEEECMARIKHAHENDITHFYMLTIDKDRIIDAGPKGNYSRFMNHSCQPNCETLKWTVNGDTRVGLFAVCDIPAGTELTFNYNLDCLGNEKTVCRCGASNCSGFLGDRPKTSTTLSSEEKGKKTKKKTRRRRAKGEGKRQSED

For Ac-GVARI-NH2 [PTD3], the Biochemical IC50: inhibition of 3H-methyl transfer from SAM to the biotinylated H4 peptide by WHSC1 941–1240 [1] was 640 µM and the Biochemical IC50: inhibition of 3H-methyl transfer from SAM to the biotinylated H4 peptide by WHSC1L1 1054–1285 [2] was over 1000 µM.
